Source: article PMC7749050 (ACS synthetic biology, 2020)

Assays:
Assay in all cases: two-hybrid
[1] = target: Rhodopseudomonas palustris BphP1 (RpBphP1), mammalian two-hybrid construct (Rhodopseudomonas palustris)
[2] = target: T1, GAL4-BD-DrBphP, mammalian two-hybrid bait (Deinococcus radiodurans (strain not …, UniProt Q9RZA4))
[3] = target: T1, GAL4-BD-DrBphP, mammalian two-hybrid …; remark: listed apart in the source

T1 sequence (Q9RZA4 whole entry, looked up, the tested form may be a part): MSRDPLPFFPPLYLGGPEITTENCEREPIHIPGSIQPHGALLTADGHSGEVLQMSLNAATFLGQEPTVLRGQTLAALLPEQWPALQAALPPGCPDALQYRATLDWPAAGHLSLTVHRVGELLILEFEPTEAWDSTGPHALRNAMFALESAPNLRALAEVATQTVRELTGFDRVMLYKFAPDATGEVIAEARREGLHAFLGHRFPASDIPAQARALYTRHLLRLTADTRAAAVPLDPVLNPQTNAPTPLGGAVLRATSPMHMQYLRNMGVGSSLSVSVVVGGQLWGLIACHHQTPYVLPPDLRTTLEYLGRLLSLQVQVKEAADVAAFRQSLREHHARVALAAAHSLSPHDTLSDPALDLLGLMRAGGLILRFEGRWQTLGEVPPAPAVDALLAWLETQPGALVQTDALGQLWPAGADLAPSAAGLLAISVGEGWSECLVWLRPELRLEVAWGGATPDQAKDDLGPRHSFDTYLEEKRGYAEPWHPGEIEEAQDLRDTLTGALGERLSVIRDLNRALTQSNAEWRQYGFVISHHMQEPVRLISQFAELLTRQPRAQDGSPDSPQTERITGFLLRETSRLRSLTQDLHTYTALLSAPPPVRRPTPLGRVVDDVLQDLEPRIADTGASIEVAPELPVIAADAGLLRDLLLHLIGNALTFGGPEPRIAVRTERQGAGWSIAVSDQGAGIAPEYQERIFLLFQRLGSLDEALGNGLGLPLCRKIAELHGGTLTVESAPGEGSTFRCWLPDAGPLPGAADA

PpsR2, mammalian two-hybrid construct (natural protein)
fold increase of luciferase expression, 775-nm light over dark [1]: 2.95 fold

B1: LDB-14-p65, mammalian two-hybrid prey (VHH)
VHH: EVQLQASGGGFVQPGGSLRLSCAASGTTSRWESMGWFRQAPGKEREFVSAISWQNNSVPYYADSVKGRFTISRDNSKNTVYLQMNSLRAEDTATYYCAAQHNFLGHRYWGQGTQVTVSS
fold increase of GFP level, 654-nm light over dark [2]: ~39 fold
fold increase of luciferase expression, 654-nm light over dark [3]: ~19.1 fold

B2: LDB-3-p65, mammalian two-hybrid prey (VHH)
VHH: EVQLQASGGGFVQPGGSLRLSCAASGFTWDHYIMGWFRQAPGKEREFVSAISENGDAWNYYADSVKGRFTISRDNSKNTVYLQMNSLRAEDTATYYCAIGFDVPSGRSWQGSHFWMYWGQGTQVTVSS
fold increase of GFP level, 654-nm light over dark [2]: ~44 fold
fold increase of luciferase expression, 654-nm light over dark [3]: ~19.5 fold
